These are literature values, as cited in PMC3433420.

Some targets named below: SHB (Homo sapiens) (UniProt Q15464); ITK (Homo sapiens) (UniProt Q08881); SYK-C (Homo sapiens) (UniProt P43405); GRB2 (Homo sapiens) (UniProt P62993); VAV1 (Homo sapiens) (UniProt P15498); VAV3 (Homo sapiens) (UniProt Q9UKW4); CRKL (Homo sapiens) (UniProt P46109); SLA (Homo sapiens) (UniProt Q13239); GRB7 (Homo sapiens) (UniProt Q14451); RASA1-NC (Homo sapiens) (UniProt P20936); SOCS5 (Homo sapiens) (UniProt O75159); ZAP70-NC (Homo sapiens) (UniProt P43403).

What all share (conditions): cited from earlier work
Data set [1] concerns the target SYK-NC (Homo sapiens) (UniProt P43405).
Data set [2] deals with BLK (Homo sapiens) (UniProt P51451).
Chain of BLK (Homo sapiens) (P51451 119-225): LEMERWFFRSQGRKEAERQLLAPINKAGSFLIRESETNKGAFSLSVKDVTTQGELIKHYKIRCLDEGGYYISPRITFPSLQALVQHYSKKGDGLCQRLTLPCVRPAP
Data set [3] concerns the target ABL2 (Homo sapiens) (UniProt P42684).
Data set [4] concerns the target YES1 (Homo sapiens) (UniProt P07947).
The target of data set [5] is RASA1-N (Homo sapiens) (UniProt P20936).
Chain of RASA1-N (Homo sapiens) (P20936 176-446): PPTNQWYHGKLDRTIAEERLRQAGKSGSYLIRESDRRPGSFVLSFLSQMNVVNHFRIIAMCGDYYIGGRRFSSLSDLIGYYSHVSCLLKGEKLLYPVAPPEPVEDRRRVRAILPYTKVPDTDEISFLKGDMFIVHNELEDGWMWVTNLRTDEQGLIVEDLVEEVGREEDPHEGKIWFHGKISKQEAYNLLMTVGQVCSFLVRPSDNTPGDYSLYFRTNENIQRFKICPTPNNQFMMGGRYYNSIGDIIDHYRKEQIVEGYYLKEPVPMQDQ
Data set [6] deals with ABL2 (Homo sapiens) (UniProt P42684). This is another data set of the same source.
Chain of ABL2 (Homo sapiens) (P42684 168-268): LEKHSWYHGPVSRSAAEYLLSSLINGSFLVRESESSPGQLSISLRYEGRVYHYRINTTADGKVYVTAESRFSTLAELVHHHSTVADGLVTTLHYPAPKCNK
The target in data set [7] is RASA1-N (Homo sapiens) (UniProt P20936). This is another data set of the same source.
Data set [8] concerns the target ABL2 (Homo sapiens) (UniProt P42684). The source holds these as a separate data set.
The target of data set [9] is YES1 (Homo sapiens) (UniProt P07947). This is another data set of the same source.
Chain of YES1 (Homo sapiens) (P07947 153-260): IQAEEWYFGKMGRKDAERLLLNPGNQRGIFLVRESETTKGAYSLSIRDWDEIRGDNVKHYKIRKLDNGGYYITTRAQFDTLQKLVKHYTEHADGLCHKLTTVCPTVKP
In data set [10] the target is NCK2 (Homo sapiens) (UniProt O43639).
Chain of NCK2 (Homo sapiens) (O43639 280-380): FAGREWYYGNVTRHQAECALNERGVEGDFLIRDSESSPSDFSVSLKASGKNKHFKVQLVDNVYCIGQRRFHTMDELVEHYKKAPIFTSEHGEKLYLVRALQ
Data set [11] concerns the target SYK-NC (Homo sapiens) (UniProt P43405). The source holds these as a separate data set.
The target of data set [12] is SHC1-PTB (Homo sapiens) (UniProt P29353).
Chain of SHC1-PTB (Homo sapiens) (P29353 483-583): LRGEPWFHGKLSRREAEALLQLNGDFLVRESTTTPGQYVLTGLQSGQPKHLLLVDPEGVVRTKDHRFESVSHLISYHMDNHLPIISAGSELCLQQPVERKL
The target in data set [13] is VAV2 (Homo sapiens) (UniProt P52735).
Chain of VAV2 (Homo sapiens) (P52735 668-772): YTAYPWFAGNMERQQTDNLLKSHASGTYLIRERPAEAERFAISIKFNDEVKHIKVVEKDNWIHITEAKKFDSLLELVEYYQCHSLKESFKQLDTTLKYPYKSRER
The target of data set [14] is PIK3R1-NC (Homo sapiens) (UniProt P27986).
Chain of PIK3R1-NC (Homo sapiens) (P27986 328-723): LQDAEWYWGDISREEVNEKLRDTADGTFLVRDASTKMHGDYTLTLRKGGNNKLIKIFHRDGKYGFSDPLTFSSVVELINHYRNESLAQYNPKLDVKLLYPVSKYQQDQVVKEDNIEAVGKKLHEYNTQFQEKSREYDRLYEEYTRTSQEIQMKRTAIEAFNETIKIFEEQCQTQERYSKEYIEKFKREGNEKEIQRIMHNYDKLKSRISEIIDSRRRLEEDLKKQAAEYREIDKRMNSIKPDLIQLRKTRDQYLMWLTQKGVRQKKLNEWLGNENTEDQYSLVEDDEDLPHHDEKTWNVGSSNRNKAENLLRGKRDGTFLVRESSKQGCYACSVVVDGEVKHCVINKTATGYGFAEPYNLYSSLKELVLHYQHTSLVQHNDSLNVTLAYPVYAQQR
The target of data set [15] is RASA1-N (Homo sapiens) (UniProt P20936). This is another data set of the same source.
Data set [16] addresses PIK3R3-N (Homo sapiens) (UniProt Q92569).
Data set [17] deals with NCK2 (Homo sapiens) (UniProt O43639). The source holds these as a separate data set.
The target of data set [18] is ABL2 (Homo sapiens) (UniProt P42684). The source holds these as a separate data set.
The target of data set [19] is PIK3R3-NC (Homo sapiens) (UniProt Q92569).
Data set [20] concerns the target PLCG2-NC (Homo sapiens) (UniProt P16885).
The target in data set [21] is RASA1-N (Homo sapiens) (UniProt P20936). The source holds these as a separate data set.
Data set [22] concerns the target FGR (Homo sapiens) (UniProt P09769).
Data set [23] concerns the target SHC1-PTB (Homo sapiens) (UniProt P29353). This is another data set of the same source.
Data set [24] concerns the target PIK3R2-N (Homo sapiens) (UniProt O00459).
Data set [25] concerns the target SYK-NC (Homo sapiens) (UniProt P43405). This is another data set of the same source.
Data set [26] addresses PIK3R3-NC (Homo sapiens) (UniProt Q92569). This is another data set of the same source.
Data set [27] has as its target VAV2 (Homo sapiens) (UniProt P52735). This is another data set of the same source.
Data set [28] addresses PIK3R3-NC (Homo sapiens) (UniProt Q92569). The source holds these as a separate data set.
Data set [29] concerns the target PLCG2-NC (Homo sapiens) (UniProt P16885). This is another data set of the same source.
Data set [30] concerns the target ABL2 (Homo sapiens) (UniProt P42684). The source holds these as a separate data set.
Data set [31] has as its target RASA1-N (Homo sapiens) (UniProt P20936). This is another data set of the same source.
The target in data set [32] is PIK3R1-NC (Homo sapiens) (UniProt P27986). The source holds these as a separate data set.
The target of data set [33] is PIK3R3-N (Homo sapiens) (UniProt Q92569). This is another data set of the same source.
The target of data set [34] is PIK3R3-NC (Homo sapiens) (UniProt Q92569). The source holds these as a separate data set.
For data set [35], the target named is RASA1-N (Homo sapiens) (UniProt P20936). This is another data set of the same source.
Data set [36] addresses FGR (Homo sapiens) (UniProt P09769). This is another data set of the same source.
Data set [37] concerns the target YES1 (Homo sapiens) (UniProt P07947). The source holds these as a separate data set.
Data set [38] addresses BLK (Homo sapiens) (UniProt P51451). This is another data set of the same source.
Data set [39] has as its target PIK3R2-N (Homo sapiens) (UniProt O00459). The source holds these as a separate data set.
Data set [40] addresses ABL2 (Homo sapiens) (UniProt P42684). This is another data set of the same source.

Where two headings read alike, the source gives them in different places.

Chain of PIK3R2-N (Homo sapiens) (O00459 325-721): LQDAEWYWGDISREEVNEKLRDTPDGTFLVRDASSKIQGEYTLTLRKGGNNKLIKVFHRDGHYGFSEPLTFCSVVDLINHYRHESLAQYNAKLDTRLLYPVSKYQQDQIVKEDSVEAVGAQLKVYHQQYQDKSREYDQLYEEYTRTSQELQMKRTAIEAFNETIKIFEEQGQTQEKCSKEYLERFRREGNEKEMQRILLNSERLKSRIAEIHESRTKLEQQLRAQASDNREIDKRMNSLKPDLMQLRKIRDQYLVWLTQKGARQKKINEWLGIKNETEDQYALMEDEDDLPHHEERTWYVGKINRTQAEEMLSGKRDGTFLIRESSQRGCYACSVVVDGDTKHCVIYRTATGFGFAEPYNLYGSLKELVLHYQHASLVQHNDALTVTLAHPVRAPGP
Chain of PLCG2-NC (Homo sapiens) (P16885 527-740): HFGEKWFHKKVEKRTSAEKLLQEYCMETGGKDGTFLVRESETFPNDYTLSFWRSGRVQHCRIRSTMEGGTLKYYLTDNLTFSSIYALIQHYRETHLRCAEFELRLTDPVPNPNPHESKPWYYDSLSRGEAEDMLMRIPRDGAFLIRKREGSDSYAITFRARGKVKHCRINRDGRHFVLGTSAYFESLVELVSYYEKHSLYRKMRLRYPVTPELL
Chain of ZAP70-NC (Homo sapiens) (P43403 5-259): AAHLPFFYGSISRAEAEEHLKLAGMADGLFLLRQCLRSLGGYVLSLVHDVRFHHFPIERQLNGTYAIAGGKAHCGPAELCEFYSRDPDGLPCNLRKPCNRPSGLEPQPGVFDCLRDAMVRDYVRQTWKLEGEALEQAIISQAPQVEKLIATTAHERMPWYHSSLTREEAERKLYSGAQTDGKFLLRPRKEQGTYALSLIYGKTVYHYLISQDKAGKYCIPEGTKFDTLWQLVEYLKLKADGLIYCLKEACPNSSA
Chain of VAV3 (Homo sapiens) (Q9UKW4 667-771): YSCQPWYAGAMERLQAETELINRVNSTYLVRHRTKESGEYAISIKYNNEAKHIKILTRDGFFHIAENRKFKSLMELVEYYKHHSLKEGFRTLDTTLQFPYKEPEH
Chain of CRKL (Homo sapiens) (P46109 9-107): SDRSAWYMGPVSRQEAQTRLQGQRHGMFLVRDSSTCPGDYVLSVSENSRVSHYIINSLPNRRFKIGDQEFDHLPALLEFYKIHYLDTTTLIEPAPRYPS
Chain of ITK (Homo sapiens) (Q08881 234-343): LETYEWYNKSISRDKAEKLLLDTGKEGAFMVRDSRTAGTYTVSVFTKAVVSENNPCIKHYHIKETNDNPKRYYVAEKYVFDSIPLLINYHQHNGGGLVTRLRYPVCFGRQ
Chain of SLA (Homo sapiens) (Q13239 79-180): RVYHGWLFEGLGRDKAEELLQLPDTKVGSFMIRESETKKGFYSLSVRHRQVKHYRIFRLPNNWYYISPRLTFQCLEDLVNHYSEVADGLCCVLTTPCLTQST
Chain of GRB2 (Homo sapiens) (P62993 55-157): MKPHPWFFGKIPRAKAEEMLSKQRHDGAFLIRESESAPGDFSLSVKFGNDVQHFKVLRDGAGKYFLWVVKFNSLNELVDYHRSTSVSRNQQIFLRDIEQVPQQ
Chain of VAV1 (Homo sapiens) (P15498 666-770): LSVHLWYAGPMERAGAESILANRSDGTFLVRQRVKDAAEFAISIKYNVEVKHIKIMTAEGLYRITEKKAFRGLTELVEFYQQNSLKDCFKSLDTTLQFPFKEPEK
Chain of GRB7 (Homo sapiens) (Q14451 426-532): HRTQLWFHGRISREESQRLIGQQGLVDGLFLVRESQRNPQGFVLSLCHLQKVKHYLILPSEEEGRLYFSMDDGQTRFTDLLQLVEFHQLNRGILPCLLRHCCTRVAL
Chain of SOCS5 (Homo sapiens) (O75159 376-481): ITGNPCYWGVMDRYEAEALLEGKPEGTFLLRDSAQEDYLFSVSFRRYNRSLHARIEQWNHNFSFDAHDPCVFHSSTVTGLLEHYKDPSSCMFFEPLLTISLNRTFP
Chain of SHB (Homo sapiens) (Q15464 405-509): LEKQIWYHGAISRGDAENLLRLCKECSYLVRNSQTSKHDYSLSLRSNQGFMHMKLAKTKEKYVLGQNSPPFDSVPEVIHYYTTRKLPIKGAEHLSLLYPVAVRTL
Chain of RASA1-NC (Homo sapiens) (P20936 176-446): as the sequence (P20936 176-446) above

As to …pYDGIPASEd, the apparent Kd (screen) with SYK-NC (Homo sapiens) [1] was 1550 nM; with BLK (Homo sapiens) [2] it was 1180 nM; with ABL2 (Homo sapiens) [3], 177 nM; in the data set with SHB (Homo sapiens) it was 1060 nM; with YES1 (Homo sapiens) [4] it was 328 nM; with RASA1-N (Homo sapiens) [5], 1410 nM. Also, the results for the apparent Kd (screen) in the data set with ABL2 (Homo sapiens) [6] and with RASA1-N (Homo sapiens) [7] were 137 nM and 1470 nM, respectively.

Regarding …pYLTPQGGA, the apparent Kd (screen) with ABL2 (Homo sapiens) [8] is 476 nM; with ITK (Homo sapiens), 767 nM; with YES1 (Homo sapiens) [9] it was 1190 nM; with NCK2 (Homo sapiens) [10], 1100 nM; with SYK-NC (Homo sapiens) [11], 1150 nM; in the data set with SHC1-PTB (Homo sapiens) [12], 153 nM. The apparent Kd (screen) with SYK-C (Homo sapiens) was 1240 nM; with VAV2 (Homo sapiens) [13] it was 226 nM; in the data set with PIK3R1-NC (Homo sapiens) [14] it was 226 nM; with GRB2 (Homo sapiens), 1330 nM; with RASA1-N (Homo sapiens) [15], 671 nM; with PIK3R3-N (Homo sapiens) [16] it was 1380 nM. The apparent Kd (screen) with VAV1 (Homo sapiens) was 1240 nM; in the data set with NCK2 (Homo sapiens) [17] it was 759 nM; with ABL2 (Homo sapiens) [18] it was 368 nM; with VAV3 (Homo sapiens), 596 nM; with PIK3R3-NC (Homo sapiens) [19] it was 950 nM; with PLCG2-NC (Homo sapiens) [20], 1350 nM. Moreover, the apparent Kd (screen) is 638 nM with RASA1-N (Homo sapiens) [21]; 1680 nM with FGR (Homo sapiens) [22]; 346 nM in the data set with SHC1-PTB (Homo sapiens) [23]; 1440 nM in the data set with CRKL (Homo sapiens); 1280 nM with PIK3R2-N (Homo sapiens) [24]; 1330 nM with SYK-NC (Homo sapiens) [25]. For the same substance, the apparent Kd (screen) is 1340 nM with PIK3R3-NC (Homo sapiens) [26] and 372 nM with VAV2 (Homo sapiens) [27].

Take …pYMNRQRDG: the apparent Kd (screen) with PIK3R3-NC (Homo sapiens) [28] was 2000 nM; with SLA (Homo sapiens), 2000 nM; in the data set with PLCG2-NC (Homo sapiens) [29], 2000 nM; with GRB7 (Homo sapiens), 2000 nM; in the data set with ABL2 (Homo sapiens) [30] it was 1960 nM; with RASA1-NC (Homo sapiens), 2000 nM. For the same substance, the apparent Kd (screen) in the data set with RASA1-N (Homo sapiens) [31] is 1210 nM; with SOCS5 (Homo sapiens), 2000 nM.

In the case of …pYMNRRRRH, the apparent Kd (screen) in the data set with PIK3R1-NC (Homo sapiens) [32] was 1510 nM; in the data set with PIK3R3-N (Homo sapiens) [33], 1380 nM; with PIK3R3-NC (Homo sapiens) [34], 1460 nM; in the data set with RASA1-N (Homo sapiens) [35] it was 306 nM; with FGR (Homo sapiens) [36] it was 1130 nM; with YES1 (Homo sapiens) [37], 585 nM. For the same substance, the apparent Kd (screen) is 1810 nM with BLK (Homo sapiens) [38], 1350 nM in the data set with PIK3R2-N (Homo sapiens) [39], 1470 nM in the data set with ZAP70-NC (Homo sapiens) and 296 nM with ABL2 (Homo sapiens) [40].
